Test results from patent publication US20110136237.

Columns and labels:
[1] = biological target: T1, phiC31 integrase (Streptomyces bacteriophage phiC31) (UniProt Q9T221); experiment: cell_activity; details: attP x attB, S. pombe, day 7
T1 sequence: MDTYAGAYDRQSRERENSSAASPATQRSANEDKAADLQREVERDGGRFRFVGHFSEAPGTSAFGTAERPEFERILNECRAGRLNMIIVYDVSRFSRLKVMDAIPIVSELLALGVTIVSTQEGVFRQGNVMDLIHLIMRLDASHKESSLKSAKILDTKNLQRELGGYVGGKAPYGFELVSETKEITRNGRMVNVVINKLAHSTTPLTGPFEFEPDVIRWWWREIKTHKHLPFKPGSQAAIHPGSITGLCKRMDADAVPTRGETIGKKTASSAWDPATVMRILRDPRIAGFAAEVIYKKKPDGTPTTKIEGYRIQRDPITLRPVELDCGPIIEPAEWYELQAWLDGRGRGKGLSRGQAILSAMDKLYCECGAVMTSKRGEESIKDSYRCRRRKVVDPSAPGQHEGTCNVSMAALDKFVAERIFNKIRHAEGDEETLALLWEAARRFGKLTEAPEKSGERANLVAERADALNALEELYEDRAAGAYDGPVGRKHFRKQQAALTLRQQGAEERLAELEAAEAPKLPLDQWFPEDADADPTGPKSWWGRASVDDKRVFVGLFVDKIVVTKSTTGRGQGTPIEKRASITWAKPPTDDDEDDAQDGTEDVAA

[2] = tested on: Cre recombinase (bacteriophage P1); experiment: cell_activity; details: positive control, S. pombe, day 7

phiC31 attP x attB
activity [1]: 80 % excision

lox
activity [2]: 100 % excision
